Source: publication PMC3947653 (Peptides, 2013)

Legend:
[1] = Aging of glucagon in glycine buffer at 37° C, analysed by LCMS; format: physicochemical
animals = details: cited from earlier work
[2] = cited from earlier work

glucagon
width of main LCMS peak, glucagon aged at pH 10 ([1]; 1 mg/ml in glycine buffer pH 10, 7 days at 37° C, reverse-phase LCMS): 3 min
deamidation events after aging, pH 10 vs pH 9 ([1]; aged 7 days at 37° C, least-squares fitting of isotopic distribution of the m/z spectrum): more deamidation events than pH 9
width of main LCMS peak, fresh glucagon ([1]; unaged glucagon, reverse-phase LCMS): 1 min
bioactivity of fibrillated glucagon given to animals (animals): retains much of its bioactivity
aggregation at alkaline pH vs acid pH [2]: much less prone to aggregation than glucagon prepared at acid pH
